Changes are numbered by the printed parent chain. One block for each binder: values may come before it.
Assays:
[1] = molecular target: T1, siglec9 with C-terminal FLAG tag on Expi 293 cells (UniProt Q9Y336 18-463, limits assumed); assay: flow cytometry, transfected Expi 293, 500 nM
T1 construct: whole, on cells; not shown: C-terminal FLAG tag
Procedure: (§1) To verify anti-siglec12 antibody specificity for native siglec12 (over other siglec family members), cross-reactivity analysis was carried out using flow cytometry. Expi 293 cells were grown in 6 well plates and transfected with […] of pcDNA3.1 expression vectors (Thermo Fisher Scientific, Waltham, MA) with inserts encoding siglec6, siglec7, siglec8, siglec9, or siglec12 proteins with C-terminal FLAG tags. The following day, Expi293 enhancers were added. On day 2 (post-transfection) cells were washed in PBSB and aliquoted into plastic V-bottomed plates at a density of 5×10⁵ cells/well. An aliquot was also used for Western blot analysis to confirm siglec expression (using anti-FLAG antibody as described below). Plated cells were incubated with anti-siglec12 antibodies at a concentration of 500 nM or siglec-specific control antibody (all from R&D Systems, Minneapolis, MN; Siglec6-specific clone 767329; Siglec8-specific clone 837535; Siglec9-specific clone 191240) at a concentration of 12.5 μg/mL for 2 hours on ice. Cells were then washed with ice cold PBSB and incubated with PE-goat anti mouse H/L chain secondary antibody (1:400 in PBSB) for 30 minutes on ice. Cells were again washed with ice cold PBSB and analyzed for surface staining based on fluorescence intensity determined by GUAVA® […]™ Plus flow cytometer.

[2] = molecular target: T2, siglec7 with C-terminal FLAG tag on Expi 293 cells (UniProt Q9Y286 19-467, limits assumed); assay: flow cytometry, transfected Expi 293, 500 nM
T2 construct: whole, on cells; not shown: C-terminal FLAG tag
Procedure: as §1

[3] = molecular target: T3, siglec8 with C-terminal FLAG tag on Expi 293 cells (UniProt Q9NYZ4 17-499, limits assumed); assay: flow cytometry, transfected Expi 293, 500 nM
T3 construct: whole, on cells; not shown: C-terminal FLAG tag
Procedure: as §1

S12-V1 = molecular target: T4, S12-V1 (human); assay: ELISA
T4 construct: also called siglec12 Vset1 region
Procedure: (§2) For ELISA assays, purified subdomain proteins were passively immobilized on assay plates and incubated with media from hybridoma cultures described above before detection of bound anti-subdomain antibodies using anti-mouse (heavy/light) secondary antibody conjugated to horseradish peroxidase (HRP). Levels of bound secondary antibody were assessed by applying colorimetric substrate and measuring absorbance values at 450 nm. Absorbance values greater than 0.07 indicate specific binding.

S12-C2 = molecular target: T5, S12-C2 (human, UniProt Q96PQ1 1-481); assay: ELISA
T5 construct: also called siglec12 C2set2 region
T5 sequence: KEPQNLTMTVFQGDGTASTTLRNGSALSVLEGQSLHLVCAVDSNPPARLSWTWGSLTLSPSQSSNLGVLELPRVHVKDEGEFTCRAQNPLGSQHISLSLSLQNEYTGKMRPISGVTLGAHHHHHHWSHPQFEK
Procedure: as §2

S12-V2C1 = molecular target: T6, S12-V2C1 (human, UniProt Q96PQ1 1-358); assay: ELISA
T6 construct: also called siglec12 Vset2-C2set1 region
Procedure: as §2

[4] = molecular target: T7, S7ecto-Fc (human siglec7 ectodomain fused with human Fc domain) (human, UniProt Q9Y286 19-353); assay: ELISA
T7 construct: extracellular domain; bought from R&D Systems; not shown: human Fc domain
Procedure: (§3) Fusion proteins of human siglec7 or siglec9 ectodomains fused with human Fc domains (R&D Systems, Minneapolis, MN) were immobilized on assay plates and incubated with media from hybridoma cultures described above before detection of bound antibodies using anti-mouse (heavy/light) secondary antibody conjugated to HRP. Levels of bound secondary antibody were assessed by applying colorimetric substrate and measuring absorbance values at 450 nm.

[5] = molecular target: T8, S9ecto-Fc (human siglec9 ectodomain fused with human Fc domain) (human, UniProt Q9Y336 18-348); assay: ELISA
T8 construct: extracellular domain; bought from R&D Systems; not shown: human Fc domain
Procedure: as §3

[6] = molecular target: T9, S12-Fc (human siglec12 extracellular domain fused with mouse Fc2a fragment) (human; mouse); assay: ELISA
T9 construct: also called S12ecto-mouse Fc2a
Procedure: After 6 weeks of immunization, serum samples from immunized mice were screened for the presence of siglec12-specific immunoglobulins. Screening was carried out by enzyme-linked immunosorbent assay (ELISA) and by fluorescence-associated cell sorting (FACS). ELISA assays utilized assay plates coated with S12-Fc target antigen for immobilization of siglec12-specific immunoglobulins from mouse serum samples, which were detected using anti-mouse light chain (kappa and lambda) secondary antibody conjugated to horseradish peroxidase (HRP). The level of bound secondary antibody was assessed by incubation with colorimetric peroxidase substrate followed by measurement of light absorbance intensity values obtained at 450 nm. For FACS analysis, serum samples were combined with U937 cells (Fc receptor blocked with 10% human serum), an AML cell line that overexpresses human siglec12. Immunoglobulin binding to siglec12 associated with these cells is a strong indicator of potential immunotherapeutic use to treat AML. Anti-mouse heavy chain fluorescent detection reagents were used to label cell surface-bound serum immunoglobulins before FACS analysis. Lymph node and spleen cells from the three best responders were harvested and fused with P3X63Ag8.653 mouse myeloma cells. After 10-14 days of selection, the resulting hybridoma library was single-cell cloned into 96-well culture plates using FACS. After 10-14 days of single cell expansion, all monoclonal hybridoma culture supernatants were screened for S12-Fc binding immunoglobulins by ELISA. Supernatant positive for S12-Fc-binding immunoglobulins was further screened by FACS for immunoglobulin binding to U937 cells. The Table includes an antibody identification number (ID #) assigned to siglec12-binding antibodies associated with each hybridoma culture. For ELISA results, background adjusted mean absorbance values obtained at 450 nm are shown. For FACS analysis, Flow Fluor MFI is the mean fluorescence intensity from flow cytometry assay (background MFI=100) and flow % gated is the percentage of cells having greater than background fluorescence.

[7] = molecular target: T7, S7ecto-Fc (human siglec7 ectodomain …); assay: ELISA; remark: listed apart in the source

T3 sequence (Q9NYZ4 17-499 limits assumed): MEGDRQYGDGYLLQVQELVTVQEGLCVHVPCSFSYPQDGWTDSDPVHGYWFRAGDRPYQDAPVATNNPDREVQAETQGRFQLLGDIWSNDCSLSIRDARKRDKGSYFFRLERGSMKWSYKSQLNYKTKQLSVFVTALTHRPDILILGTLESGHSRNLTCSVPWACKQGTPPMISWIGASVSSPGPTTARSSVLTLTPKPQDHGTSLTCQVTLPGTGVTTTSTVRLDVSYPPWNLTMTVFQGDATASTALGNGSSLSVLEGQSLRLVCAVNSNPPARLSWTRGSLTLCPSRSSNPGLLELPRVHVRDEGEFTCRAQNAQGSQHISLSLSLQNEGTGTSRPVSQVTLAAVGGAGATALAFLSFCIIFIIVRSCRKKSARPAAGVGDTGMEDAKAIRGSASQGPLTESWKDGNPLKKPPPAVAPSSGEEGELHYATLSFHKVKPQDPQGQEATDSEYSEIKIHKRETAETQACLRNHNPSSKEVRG
T8 sequence (Q9Y336 18-348): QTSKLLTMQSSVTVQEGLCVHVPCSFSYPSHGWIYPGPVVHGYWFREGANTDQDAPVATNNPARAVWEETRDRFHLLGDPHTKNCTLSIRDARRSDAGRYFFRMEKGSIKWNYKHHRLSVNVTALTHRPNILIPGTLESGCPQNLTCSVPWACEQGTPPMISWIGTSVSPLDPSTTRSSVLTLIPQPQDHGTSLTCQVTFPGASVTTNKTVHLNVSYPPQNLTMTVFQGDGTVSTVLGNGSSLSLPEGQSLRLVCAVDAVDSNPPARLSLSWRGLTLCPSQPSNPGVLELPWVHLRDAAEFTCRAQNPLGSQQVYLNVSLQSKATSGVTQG
T7 sequence (Q9Y286 19-353): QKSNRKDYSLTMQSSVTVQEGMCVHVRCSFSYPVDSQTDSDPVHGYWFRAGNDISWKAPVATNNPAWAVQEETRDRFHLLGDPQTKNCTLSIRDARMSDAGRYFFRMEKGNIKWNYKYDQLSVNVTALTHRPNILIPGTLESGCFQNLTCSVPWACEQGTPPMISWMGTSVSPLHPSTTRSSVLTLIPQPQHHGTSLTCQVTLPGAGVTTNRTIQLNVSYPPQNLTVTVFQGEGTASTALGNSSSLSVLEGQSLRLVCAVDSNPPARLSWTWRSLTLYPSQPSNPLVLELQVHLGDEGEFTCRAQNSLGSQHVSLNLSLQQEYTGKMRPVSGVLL
T4 sequence (chain, as listed by the source limits assumed): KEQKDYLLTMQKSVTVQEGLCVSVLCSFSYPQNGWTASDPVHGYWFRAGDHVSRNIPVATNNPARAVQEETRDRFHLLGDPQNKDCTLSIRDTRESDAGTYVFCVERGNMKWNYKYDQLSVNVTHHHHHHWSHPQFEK
T9 sequence (chain, as listed by the source limits assumed): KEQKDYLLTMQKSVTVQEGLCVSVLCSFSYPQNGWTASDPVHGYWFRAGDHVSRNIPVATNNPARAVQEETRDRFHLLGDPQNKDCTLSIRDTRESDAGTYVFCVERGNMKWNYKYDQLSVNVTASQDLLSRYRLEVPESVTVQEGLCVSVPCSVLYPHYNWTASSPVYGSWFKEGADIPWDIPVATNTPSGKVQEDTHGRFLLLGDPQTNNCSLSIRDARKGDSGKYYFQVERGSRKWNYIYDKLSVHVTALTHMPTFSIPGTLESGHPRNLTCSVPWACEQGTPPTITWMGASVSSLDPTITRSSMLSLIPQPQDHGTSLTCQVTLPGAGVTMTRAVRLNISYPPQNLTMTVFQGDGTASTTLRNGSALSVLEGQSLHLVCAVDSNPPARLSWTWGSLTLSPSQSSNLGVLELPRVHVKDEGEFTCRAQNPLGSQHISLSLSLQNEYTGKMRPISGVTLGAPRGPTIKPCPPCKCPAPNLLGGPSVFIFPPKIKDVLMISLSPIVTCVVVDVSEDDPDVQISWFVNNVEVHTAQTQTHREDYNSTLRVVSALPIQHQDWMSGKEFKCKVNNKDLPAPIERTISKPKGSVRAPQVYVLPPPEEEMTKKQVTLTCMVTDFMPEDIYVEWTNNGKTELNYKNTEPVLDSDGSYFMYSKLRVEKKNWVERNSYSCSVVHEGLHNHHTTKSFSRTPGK
T2 sequence (Q9Y286 19-467 limits assumed): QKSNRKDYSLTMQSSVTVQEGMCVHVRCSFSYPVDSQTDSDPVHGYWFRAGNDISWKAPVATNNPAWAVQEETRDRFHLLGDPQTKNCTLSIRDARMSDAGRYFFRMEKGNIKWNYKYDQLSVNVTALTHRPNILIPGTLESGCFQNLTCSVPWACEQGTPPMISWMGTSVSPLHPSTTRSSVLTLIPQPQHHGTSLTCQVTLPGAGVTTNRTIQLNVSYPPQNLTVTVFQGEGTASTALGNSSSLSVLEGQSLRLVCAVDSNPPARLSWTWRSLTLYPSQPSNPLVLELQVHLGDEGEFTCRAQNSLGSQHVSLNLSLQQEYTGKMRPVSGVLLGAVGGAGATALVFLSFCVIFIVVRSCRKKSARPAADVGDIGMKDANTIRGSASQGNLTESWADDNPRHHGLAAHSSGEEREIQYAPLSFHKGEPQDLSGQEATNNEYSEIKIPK
T6 sequence (Q96PQ1 other isoform, or with tags, fused parts or gaps limits assumed): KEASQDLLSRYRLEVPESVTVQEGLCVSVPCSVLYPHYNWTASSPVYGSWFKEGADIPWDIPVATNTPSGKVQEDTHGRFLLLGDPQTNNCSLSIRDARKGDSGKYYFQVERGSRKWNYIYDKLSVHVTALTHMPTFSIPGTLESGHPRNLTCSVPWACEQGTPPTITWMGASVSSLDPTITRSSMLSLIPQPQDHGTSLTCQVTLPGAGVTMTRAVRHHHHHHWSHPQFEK
T1 sequence (Q9Y336 18-463 limits assumed): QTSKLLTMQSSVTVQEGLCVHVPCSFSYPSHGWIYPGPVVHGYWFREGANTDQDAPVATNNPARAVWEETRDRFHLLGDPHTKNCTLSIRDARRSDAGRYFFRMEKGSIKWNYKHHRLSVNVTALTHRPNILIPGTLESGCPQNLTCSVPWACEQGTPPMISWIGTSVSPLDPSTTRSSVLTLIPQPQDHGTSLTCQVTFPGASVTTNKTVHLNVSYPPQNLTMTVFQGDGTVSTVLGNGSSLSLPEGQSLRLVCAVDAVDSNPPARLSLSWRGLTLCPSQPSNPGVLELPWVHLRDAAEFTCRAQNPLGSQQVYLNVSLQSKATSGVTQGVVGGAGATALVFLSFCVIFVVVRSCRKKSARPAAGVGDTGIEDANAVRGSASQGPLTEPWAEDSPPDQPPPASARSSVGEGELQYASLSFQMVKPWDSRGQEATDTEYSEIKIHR

B2: S0057 (antibody, V domains shown)
VH: QGQLVQSGAEVKKPGASVKVSCKASGYTFNNYGISWVRQAPGQGLEWMGWISAYNGFTRSTQKFQGRVTLTTDTSTSTAHMELRSLRSDDTAAYYCARDGGDGFDPWGQGTLVTVSS
VL: EIVLTQSPATLSLSPGERATLSCRASQSVSSFLAWYQQKPGQAPRLLIFDASNRATGIPARFSGSGSGTDFTLTISSLEPEDFAVYYCQQRSNWITFGQGTRLEIKRA
notes: human variable domains with mouse constant regions (Trianni mouse hybridoma); also called S0057 whole antibody
binding result [7]: no binding (tested: A450>0.09 (so in the source)) | MFI [1]: 1.3 | MFI [2]: 2.8 | MFI [3]: 6.3 | binding result (S12-V1): no binding (tested: A450 0.07) | binding result (S12-C2): no binding (tested: A450 0.07) | A450 (S12-V2C1): 0.62 | A450 [4]: 0.07 | A450 [5]: 0.08 | A450 [6]: 2.64

B3: S0023 (antibody, V domains shown)
VH: EVQLLESGGGLVQPGGSLRLSCAASGFTFSTFAMSWVRQAPGKGLEWVSTISGGGDSTYYADSVKGRFTISRDNSKNMMSLQMNSLRAVDTAVYYCVKGGGDEYFYYGMDVWGQGTTVTVSS
VL: DIQMTQSPSSLSASVGDRVTITCRASQGIRNDLGWYQQKPGKAPKRLIYSASSLQSGVPSRFSGSGSGTEFTLTISSLQPEDFATYYCLQHNSYPYTFGQGTPLDIKR
notes: human variable domains with mouse constant regions (Trianni mouse hybridoma)
MFI [1]: 3 | MFI [2]: 2.1 | MFI [3]: 2.8 | binding result (S12-V1): no binding (tested: A450 0.07) | binding result (S12-C2): no binding (tested: A450 0.07) | A450 [4]: 0.05 | A450 [5]: 0.05

B4: S0040 (antibody, V domains shown)
VH: QVQLVQSGAEVKKPGASVKVSCKASGYTFTSYDINWVRQATGQGLEWMGWMNPNSGNTGYAQNFQGRVTMTRNTSINTAYMELSSLRSEDTAVYYCTRGGPTLVRGVIIRDAFDFWGQGTMVTVSS
VL: EIVMTQSPATLSVSPGERATLSCRASQSVSNSFAWYQQKPGQAPRLLIYGAFTRATGIPARFSGSGSGTEFTLTISSLQSEDFAVYYCQQYKTWPLTFGGGTKVEIKR
notes: as for B3
binding result (S12-V1): no binding (tested: A450 0.07) | binding result (S12-V2C1): no binding (tested: A450 0.07) | A450 [4]: 0.05 | A450 [5]: 0.05

Further lines, results first:

MFI [1]: 2.3 | MFI [2]: 3.9 | MFI [3]: 5.3 | A450 (S12-V1): 0.1 | binding result (S12-C2): no binding (tested: A450 0.07) | binding result (S12-V2C1): no binding (tested: A450 0.07) | A450 [4]: 0.06 | A450 [5]: 0.05 | A450 [6]: 1.99
B1: S0042 (antibody, V domains shown)
VH: QVQLVQSGTEVKKPGASVKVSCKVSGYTLSDLSIHWVRQAPGKGLEWMGGFEPEDGEIIYAQKFQGRVIMTEDTSTDTAYMKLSSLRSEDTAVYYCATDKRYFDWLLSGFDYWGQGTLVTVSS
VL: DIQLTQSPSFLSASVGDRVTITCRASQGISSYLAWYQQKPGKAPKLLIFAASTLQSGVPSRFSGSGSGTEFTLTISSLQPEDFATYYCQRLHSYPRTFGQGTKVEIKRA
notes: as for B3

binding result (S12-V1): no binding (tested: A450 0.07) | binding result (S12-V2C1): no binding (tested: A450 0.07) | A450 [4]: 0.06 | A450 [5]: 0.05
B5: S0103 (antibody, V domains shown)
VH: B4 VH with N73D, I76V, T97A, T102N
VL: B4 VL with T69I
notes: as for B3

MFI [3]: 7 | binding result (S12-V1): no binding (tested: A450 0.07) | A450 (S12-C2): 0.08 | A450 (S12-V2C1): 1.65 | A450 [4]: 0.07 | A450 [5]: 0.06 | A450 [6]: 3.34
B6: S0102 (antibody, V domains shown)
VH: QVQLVESGGGVVQPGRSLRLSCAASGFTFSSYGMHWVRQAPGKGLEWVAVISYDGSNKYYTDSVKGRFTISRDNSKNTLYLQMNSLRAEDTAVYYCARGGYYGSGSLDYWGQGTLVTVSS
VL: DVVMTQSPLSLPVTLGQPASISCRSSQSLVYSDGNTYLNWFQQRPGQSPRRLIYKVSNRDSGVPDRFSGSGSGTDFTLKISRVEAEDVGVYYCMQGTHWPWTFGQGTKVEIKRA
notes: human variable domains with mouse constant regions (Trianni mouse hybridoma); also called S0102 anti-Siglec12 antibody

Source: patent publication US20250019432A1 (MABLYTICS, published 2025)
